This is an account of results in paper PMC13376213, “Systematic discovery of motif-based interactions of the auxiliary domains of USP family deubiquitinases” (Nature Communications, 2026).

One assay has as its system FLAG-USP20. In words: IP-MS of FLAG-USP20 and variants vs empty vector. The format is cell-based, human.
Another assay deals with FLAG-USP33. The experiment in a line: IP-MS of FLAG-USP33 and variants vs empty vector. The assay is classed as cell-based, human. To be noted: IP-MS, FLAG-USP33 UBP mutant vs EV, comparison USP33_E86K_D90R/EV, Limma. How it is done: For transfection, 1x10^6 HEK293 cells were seeded in 10 cm dishes with DMEM, 10% FBS, 1% L-G (without antibiotic) medium, incubated at 37 °C, with 5 % CO2 for 24 h. Cells were transfected with a transfection mix containing […] of Opti-MEM (Thermo Fisher Scientific), 20 μL of PEI stock (1 mg/mL) and […] of the desired cDNA. For co-transfection, 2.5 μg of DNA of each plasmid was used. The mix was vortexed for 15 s and incubated at room temperature for 15–20 min. The transfection mix was added to the dish and gently mixed. Plates were incubated at 37 °C for 36–48 h before harvesting. For USP33 constructs, 5 μM Bortezomib (proteasome inhibitor) was added 4 hours before harvesting the cells.
FLAG fusion proteins were immunoprecipitated from HEK293 cells transfected with plasmids encoding the protein of interest using the anti-FLAG M2 affinity gel from Sigma-Aldrich. Cell pellets were lysed with 100–200 μL/per dish lysis buffer (Pierce RIPA buffer, 1X protease inhibitor (Roche), 50 unit/μL of Benzonase Nuclease) rotating at 4 °C for 30–45 min. […] The cell lysate was clarified by centrifugation at 17,000 x g, at 4 °C for 12 min, and the supernatant was transferred to a clean, pre-chilled low-binding Eppendorf tube. […] The IP samples were centrifuged at 6500 x g at 4 °C for 30 s. The supernatant containing the unbound proteins was transferred to a clean tube. The resin was washed three times with 500 μL of TBS, centrifuged at 6500 x g at 4 °C for 30 s. The bound FLAG fusion protein was eluted with 100 μL of 150 ng/μL 3X FLAG peptide (Sigma) in TBS and incubated in the cold room for 1 h or overnight. The tube was centrifuged at 6500 x g at 4 °C for 30 s; the eluted proteins were transferred to a clean tube. The eluted proteins were prepared for analysis by western blot or Mass Spectrometry.
Immunoprecipitation (IP) was carried out as described above; four technical replicates of each IP condition were performed, and the empty vector was used as a negative control. The eluted protein was processed following the Strap-micro protocol (Protifi). The IP elution containing 1–100 μg protein was 1:1 mixed with 2X lysis buffer (10% SDS, 100 mM TEAB pH 8.5). […] Samples were vortexed, mixed with 165 μL of 100 mM TEAB in 90% methanol, and passed through an S-Trap micro column at 4000 g for 30 s to trap the proteins. The column was washed with 150 μL of 100 mM TEAB in 90% methanol (at 4,000 x g for 30 seconds) three times. The S-Trap column was centrifuged again and transferred to a clean 2 mL tube for digestion with 20 μL of digestion buffer (1 μg trypsin per 10 μg sample in 50 mM TEAB), at 37 °C overnight in a thermomixer without shaking. The digested peptides were eluted with […] of 50 mM TEAB in water, […] of 0.2 % formic acid in water, and […] of 50 % acetonitrile in water, centrifuging at 4000 x g for 1 min each time. The three elutions were pooled in a low-binding tube, placed on dry ice until frozen, dried in a SpeedVac vacuum (Thermo Scientific), and proceeded with the LCMS analysis.
Eluted peptides were resuspended in water supplemented with 0.015% dodecyl maltoside and 0.1% formic acid and were injected on a Vanquish Neo UHPLC System operating in trap and elute mode coupled to an Orbitrap Astral Mass Spectrometer (Thermo Fisher Scientific). […] Eluted peptides were analyzed using data-independent acquisition mode on the mass spectrometer.
Peptides were searched against the Uniprot Swissprot Human database (released on 02/01/2023) supplemented with the USP20 and USP33 mutants using DiaNN (v1.9.0)[62] operating in library-free mode. Data filtering and statistical analysis were carried out in Python (v3.9.0) using the packages pandas, numpy, sklearn, scipy, rpy2, Plotnine, and Plotly and R (v4.4.3) using the package limma.
Protein groups identified with a single peptide or quantified in fewer than three replicates in at least 1 condition were filtered out. […]

Protocol for FLAG-USP20: For transfection, 1x10^6 HEK293 cells were seeded in 10 cm dishes with DMEM, 10% FBS, 1% L-G (without antibiotic) medium, incubated at 37 °C, with 5 % CO2 for 24 h. Cells were transfected with a transfection mix containing 970 mL of Opti-MEM (Thermo Fisher Scientific), 20 μL of PEI stock (1 mg/mL) and 5 mg of the desired cDNA. For co-transfection, 2.5 μg of DNA of each plasmid was used. The mix was vortexed for 15 s and incubated at room temperature for 15–20 min. The transfection mix was added to the dish and gently mixed. Plates were incubated at 37 °C for 36–48 h before harvesting. For USP33 constructs, 5 μM Bortezomib (proteasome inhibitor) was added 4 hours before harvesting the cells.
FLAG fusion proteins were immunoprecipitated from HEK293 cells transfected with plasmids encoding the protein of interest using the anti-FLAG M2 affinity gel from Sigma-Aldrich. […] The cell lysate was clarified by centrifugation at 17,000 x g, at 4 °C for 12 min, and the supernatant was transferred to a clean, pre-chilled low-binding Eppendorf tube. […] The IP samples were centrifuged at 6500 x g at 4 °C for 30 s. The supernatant containing the unbound proteins was transferred to a clean tube. The resin was washed three times with 500 μL of TBS, centrifuged at 6500 x g at 4 °C for 30 s. The bound FLAG fusion protein was eluted with 100 μL of 150 ng/μL 3X FLAG peptide (Sigma) in TBS and incubated in the cold room for 1 h or overnight. The tube was centrifuged at 6500 x g at 4 °C for 30 s; the eluted proteins were transferred to a clean tube. The eluted proteins were prepared for analysis by western blot or Mass Spectrometry.
Immunoprecipitation (IP) was carried out as described above; four technical replicates of each IP condition were performed, and the empty vector was used as a negative control. The eluted protein was processed following the Strap-micro protocol (Protifi). The IP elution containing 1–100 μg protein was 1:1 mixed with 2X lysis buffer (10% SDS, 100 mM TEAB pH 8.5). […] Samples were vortexed, mixed with 165 μL of 100 mM TEAB in 90% methanol, and passed through an S-Trap micro column at 4000 g for 30 s to trap the proteins. The column was washed with 150 μL of 100 mM TEAB in 90% methanol (at 4,000 x g for 30 seconds) three times. The S-Trap column was centrifuged again and transferred to a clean 2 mL tube for digestion with 20 μL of digestion buffer (1 μg trypsin per 10 μg sample in 50 mM TEAB), at 37 °C overnight in a thermomixer without shaking. The digested peptides were eluted with 40 mL of 50 mM TEAB in water, 40 mL of 0.2 % formic acid in water, and 40 mL of 50 % acetonitrile in water, centrifuging at 4000 x g for 1 min each time. The three elutions were pooled in a low-binding tube, placed on dry ice until frozen, dried in a SpeedVac vacuum (Thermo Scientific), and proceeded with the LCMS analysis.
Protein groups identified with a single peptide or quantified in fewer than three replicates in at least 1 condition were filtered out. Protein group intensities were median normalized and missing values were imputed using a Gaussian distribution centered on the median with a downshift of 1.8 and width of 0.3 (relative to the standard deviation).

B1: BCLAF3 (protein, UniProt A2AJT9 1-711, looked up)
BCLAF1 and THRAP3 family …: MARSRSRSPRWKHRSLSPVPRNAEHYKQRHSHGHYGCEYRKDPKRPVAWRMDSEKHGQSKPRIPSRGNIYYQSYEHRSPSPNIRNSLENVYMYKPHRGYSPGRGDSNRRAQYMPKYSEGIPYKEHERNSYPQKVQGGHSPDDHRVRGSGKGGKPPQRSIADSFRFEGKWHEDELRHQRIQEEKYSQSTRRGSEDFETRSSFQKRYPEDRDFRKYGHTSKRPKDVERYESREPARNPKWKPEHSLPPYQEDTDQWNLGPQTYRHAEREHPETSSATKVSYDYRHKRPKLLDGDQDFSDGRTQKYCKEEDRKYSFQKGPLNRELDCFNTGRGRETQDGQVKEPFKPSKKDSIACTYSNKNDVDLRSSNDKWKEKIKKEGDCRKESNSSSNQLDKSQKLPDVKPSPINLRKKSLTVKVDVKKTVDTFRVASSYSTERQMSHDLVAVGRKSENFHPVFEHLDSTQNTENKPTGEFAQEIITIIHQVKANYFPSPGITLHERFSTMQDIHKADVNEIPLNSDPEIHRRIDMSLAELQSKQAVIYESEQTLIKIIDPNDLRHDIERRRKERLQNEDEHIFHIASAAERDDQNSSFSKVKNVHTDGFQKPTHFIKSNFRKCIEKPYMNYTTQRKDIITHKPFEVEGNHRNTRVRPFKSNFRGGRCQPNYKSGLVQKSLYIQAKYQRLRFTGPRGFITHKFRERLMRKKKEYTDVATGI
With B1, the log2_FC in the assay with FLAG-USP20 (IP-MS, FLAG-USP20-ΔUBP vs EV, comparison bh_2 Sample_Limma_ImpMedInt_USP20_UBP_domain/EV) was found to be 4.725; in the assay on FLAG-USP20 (IP-MS, FLAG-USP20 vs EV, comparison USP20_wt/EV, Limma) it was 4.955; in the assay on FLAG-USP20 (Table S7b USP20 MS_and_motif, bait USP20), 4.955; with FLAG-USP33, 4.934.
